Experimental data reported in patent US20210009686A1 (BEIJING XUANYI PHARMASCIENCES, published 2021).
Positions count from the first letter of the chain named.

B1: hybridoma clone 10-P12-A (antibody, V domains shown)
VH: EIQLQQSGAELVKPGTSVKISCKASGYSFTGYNMNWVKQSHGKSLEWIGNINPYYSNTNYNQRFKGKATLTVDKSSSTAYMQLNSLTSEDSAVYYCARHVRGNSFDYWGQGTTLTVSS
VL: DIVMTQSPSSLTVTAGERVTVGCKSRQSLFNSENQKNYLSWYQQKPGQPPKLLLYWTSTRESGVPERFTGSGSGTDFTLTISSVQAEDLAVYYCQNNYIYPFTFGSGTKLEIK
B2: hybridoma clone 10-L9-A (antibody, V domains shown)
VH: EVQLVESGGGLVKPGGSRKLSCAASGFTFSDYGMHWVRQAPEKGLEWIAYINSGSSTIYYADTVKGRFTISRDNAKNTLFLQMTSLRSEDTAMFYCARFARGNVLDYWGQGTSVTVSS
VL: DIVMTQSPSSLTVTAGEKVTMSCRSSQSLLNSGNQRNYLTWYQQKPGHPPKLLIYWASTRESGVPDRFTGSGSGTDFTLTISGVQAEDLAVYYCQNGYSYPLTFGAGTKLEVK
B3: hybridoma clone 5-K4-B (antibody, V domains shown)
VH: EVQLQQSGPELVKPGASVKMSCKASGYTFISYLIHWVKQKPGQGLEWIGYINPYNDGTKYNEKFKGKATLTSDKSSSTASMEFSSLTSEDSAVYYCTRGDFWGQGTTLTVSS
VL: DIVMTQSPSSLTVTAGEKVTMSCKSSQSLLNSGNQKNYLTWYQQKPGQPPKLLIYWASIRASGVPDRFTGSGSGTDFTLTISSVQAEDLALYYCLNDYSFPLTFGAGTKLELK
notes: also called 5K41B
B4: hybridoma clone 6-M11-A (antibody, V domains shown)
VH: B2 VH with L11S, I48V, N52S, S56N, I58F, A61T, S85G, F94Y, A100T, V104A
VL: B3 VL with I54L, I59T, A61E, A90T, L91V, L95Q, D97A, F100Y
B5: hybridoma clone 2-F13-A (antibody, V domains shown)
VH: B3 VH with I30T, S31N, L33V, I34M, Y54F, N55D, S80Y, F83L, F101Y
VL: B3 VL with S22T, I59T, A61D, T69R, L91V
B6: hybridoma clone 7-G17-A (antibody, V domains shown)
VH: B2 VH with A24V, H35Y, I48V, N52S, I70M, F94Y, F99I, V104A, L105M
VL: B2 VL with A15P, R24K, L30F, T40A, H48Q, G83S, G97D, S99F, V112L
B7: hybridoma clone 1-H16-A (antibody, V domains shown)
VH: B2 VH with H35Y, I48V, Y50F, N52S, Y60C, F94Y, F99I, V104A, L105M
VL: B3 VL with K18R, Q35L, I59T, A61E, S83T, L91V, L95Q, S99F, F100Y
B8: hybridoma clone 10-J10-B (antibody, V domains shown)
VH: QVQLQQSGAELARPGASVKLSCKASGYTFTSWSISWVKQRTGQGLEWIGEIYPRSDNIHYNEKFKGKATLTADKSSSTVYMQLSSLTSEDSAVYFCARAYYGNSFAYWGQGTLVTVSA
VL: DIVMTQSPSSLTVTAGEKVTMTCKSSQILLNSGNQKNYLTWYQQKPGQPPKLLIYWASTRESGVPDRFTGSGSGTDFSLTISSVQAEDLAIYYCQNDYYYPFTFGSGTKLEIK
B9: hybridoma clone 9-N14-A (antibody, V domains shown)
VH: B2 VH with H35Y, I48L, N52S, S56N, T57N, F94Y, F99I, V104A, L105M, T115I
VL: B3 VL with I59T, A61E, L91V, L95Q, S99I, F100Y, E111G
B10: hybridoma clone 2-D22-A (antibody, V domains shown)
VH: B2 VH with N52S, T57S, I70M, N77K, M83T, F94Y, F99I, V104A, L105M, S117T
VL: B2 VL with R24K, T40A, H48Q, G83S, G97D, V112L
B11: hybridoma clone 9-A13-B (antibody, V domains shown)
VH: B2 VH with T28S, I48V, Y50H, N52S, V64M, F94Y, V104T, L105M
VL: B2 VL with R24K, R36K, H48Q, G83S, A90T, V112L
B12: hybridoma clone 9-M7-A (antibody, V domains shown)
VH: EVQLVESGGALVKPGGSLKLSCAASGFTFSNYAMSWIRQTPEKRLEWVATIIIGGTYTYYPDSVKGRFTISRDNAKNTLYLQMSSLRSEDTALYYCARQVYGNSFAYWGQGTLVTVSA
VL: B8 VL with T22S, I28S, S78T, I91V, D97N, Y99I
B13: hybridoma 1-B13-A (antibody, V domains shown)
VH: B8 VH with S31V, I34M, E46Q, R54K, D56G, I58T, S117P
VL: B8 VL with S10P, V19A, T22S, I28S, K36R, I91V, Y98F, Y99I
B14: chimeric Ab 5-J22-A (antibody, V domains shown)
VH: B2 VH with I48V, Y50H, N52S, S56N, T57I, Y59H, V64L, F94Y, V104T, L105M
VL: B3 VL with I59T, A61E, A90T, L91V, L95Q, D97A
notes: also called 5-22-A
B15: hybridoma clone 7-E20-A (antibody, V domains shown)
VH: B2 VH with I48V, N52S, Y59H, A61V, V64M, F94Y, V104T
VL: B2 VL with R24K, L30F, S32T, R36K, H48Q, G83S, A90T, V112L
B16: hybridoma clone 1-M5-A (antibody, V domains shown)
VH: B12 VH with P14S, K19R, Y32N, L93F, T115S
VL: B8 VL with T22S, I28S, S78T, I91V, D97N, Y99F
B17: hybridoma clone 6-C5-A (antibody, V domains shown)
VH: B2 VH with I48V, N52S, V64M, F94Y, A97T, V104T, L105M
VL: B2 VL with R24K, Q44R, H48Q, G83S, A90T, V91F, V112L
B18: hybridoma clone 4-N1-A (antibody, V domains shown)
VH: B2 VH with E6N, I48V, N52S, V64M, F94Y, A100V, V104S, L105M
VL: B3 VL with I59T, A61E, A90T, L91V, L95Q, D97A, F100Y
B19: hybridoma clone 7-A21-A (antibody, V domains shown)
VH: B2 VH with H35Y, I48L, N52S, S56N, F94Y, F99I, V104A, L105M
VL: B3 VL with I59T, A61E, L91V, L95Q, S99I, F100Y, E111G
B20: hybridoma clone 7-B15-A (antibody, V domains shown)
VH: B2 VH with Y50H, N52S, V64M, F94Y, A100V, V104A
VL: B2 VL with S22N, R24K, R36K, H48Q, G83S, A90T, V112L
B21: hybridoma clone 9-C6-A (antibody, V domains shown)
VH: B2 VH with I48V, N52S, V64M, F94Y, A100V, V104S, L105M
VL: B2 VL with M21L, R24K, R36K, G47R, H48Q, G83N, A90T, G97A, V112L
B22: hybridoma clone 10-K12-A (antibody, V domains shown)
VH: B2 VH with H35F, I48V, A49G, N52S, T57N, F94Y, F99I, V104A, L105M
VL: B3 VL with I59T, A61E, L91I, L95Q, S99F, F100Y
B23: hybridoma clone 9-B11-A (antibody, V domains shown)
VH: B2 VH with I48V, N52S, T57P, F94Y, V104A, L105M
VL: B3 VL with I59T, A61D, L91V, L95Q, D97N, S99Y, F100Y, K109N
B24: hybridoma clone 5-J22-A (antibody, V domains shown)
VH: B2 VH with I48V, Y50H, N52S, S56N, T57I, Y59H, V64L, F94Y, V104T, L105M
VL: B3 VL with I59T, A61E, A90T, L91V, L95Q, D97A
B25: chimeric Ab 4-N1-A (antibody, V domains shown)
VH: B2 VH with E6N, I48V, N52S, V64M, F94Y, A100V, V104S, L105M
VL: B3 VL with I59T, A61E, A90T, L91V, L95Q, D97A, F100Y
B26: hybridoma clone 10-P2-A (antibody, V domains shown)
VH: EVQLQQSGPALVKPGASVKMSCKASGYSFTGYNIHWVKQSHGKSLEWIGYIDPNNGVTYSNQKFKGKATLTVDKSSSTAYMQLNSLTSEDSAVYYCARPYYGNSFDYWGQGTTLTVSS
VL: DIVMTQSPSSLTVTAGEKVTMSCKSSQSLLNSGNLRNYLTWYQQKPGQPPKLLIYWASTRESGVPDRFTGSGSGTDFTLTINSVQAEDLALYFCQDGYFYPFPFGSGTKLVIK

Tests used:
[1] = biological target: T1, claudin 18.1 (CLDN18.1) (human, UniProt P56856 1-261); assay: FACS, hybridoma supernatant on HEK293-CLDN18.1
T1 construct: also called HEK293-CLDN18.1
From the text: (§1) Ten days after fusion, hybridoma supernatants were screened by FACS against HEK293-CLDN18.2, HEK293-CLDN18.1 and HEK293.

[2] = biological target: T2, claudin 18.2 (CLDN18.2) (human); assay: FACS, hybridoma supernatant on HEK293-CLDN18.2;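 further: flow cytometry of hybridoma supernatants taken 10 days after fusion, applied to HEK293 cells stably expressing CLDN18.2, with MFI standing for mean fluorescence intensity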
T2 construct: also called Claudin 18 isotype 2; HEK293-CLDN18.2
From the text: as §1

[3] = biological target: T1, claudin 18.1 (CLDN18.1); assay: in-cell ELISA, hybridoma supernatant on HEK293-CLDN18.1 cells
Method: (§2) In-cell ELISAs were performed as follows: 5×10³ HEK293-CLDN18.2 cells were seeded per well in a poly-L-lysine-coated 96-well plate. The plates were then incubated at 37° C. with 5% CO₂ for 2 days. Following incubation, culture media was removed from each well, and the HEK293-CLDN18.2 cells were blocked with 200 μl blocking buffer (3% BSA/PBS (pH 7.4)) per well for 1 hour at room temperature. Each hybridoma supernatant was incubated with cells at room temperature for 1 hour. Cells were gently washed 3 times with 200 μl PBS (pH 7.4) containing 1 mM Ca²⁺ and 0.5 mM Mg²⁺. Next, cells were incubated with 100 μl of HRP-conjugated goat anti-human IgG (H+L) antibody for 1 hour at room temperature. Following the incubation, the cells were washed three times with 200 μl PBS (pH 7.4) containing 1 mM Ca²⁺ and 0.5 mM Mg²⁺. 100 μl of 1-Step™ Ultra TMB-ELISA Substrate was added to each well, and the reactions were stopped by addition of 50 μl of stop solution. OD₄₅₀ was measured using CLARIOStar microplate reader. The in-cell ELISAs were repeated for each clone using HEK293-CLDN18.1 cells.

[4] = biological target: T2, claudin 18.2 (CLDN18.2); assay: in-cell ELISA, hybridoma supernatant on HEK293-CLDN18.2 cells
Method: as §2

[5] = biological target: T2, claudin 18.2 (CLDN18.2); assay: FACS, HEK293-CLDN18.2 cells
Method: The interaction of 20 purified chimeric antibodies with CLDN18.2 was assessed by in-cell ELISAs and FACS using HEK293-CLDN18.2 cells. […] The FACS assays were performed as follows: Serial dilutions for each antibody clone shown in Tables 7 and 8 were prepared and stained with HEK293-CLDN18.2 cells on ice for 30 min, with final antibody concentrations of 10 g/ml, 3 g/ml, 1 g/ml, 0.3 μg/ml, 0.1 μg/ml, 0.03 μg/ml, 0.01 μg/ml, and 0 μg/ml. […] Cells were washed, and analyzed by FACS.

[6] = biological target: T2, claudin 18.2 (CLDN18.2); assay: in-cell ELISA, HEK293-CLDN18.2 cells
Method: as §2
The in-cell ELISAs were performed as described above. […] Cells were washed, and analyzed by FACS.

T1 sequence (P56856 whole entry): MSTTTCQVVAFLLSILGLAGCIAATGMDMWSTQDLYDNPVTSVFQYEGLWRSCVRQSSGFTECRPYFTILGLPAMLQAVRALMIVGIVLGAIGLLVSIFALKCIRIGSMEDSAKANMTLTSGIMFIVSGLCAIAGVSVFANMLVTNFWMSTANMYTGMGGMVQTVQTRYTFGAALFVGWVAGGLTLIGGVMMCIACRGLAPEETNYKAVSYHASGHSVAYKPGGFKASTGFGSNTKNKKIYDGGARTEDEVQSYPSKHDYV

| Binder | MFI [1] | MFI [2] | OD450/µg IgG [3] | OD450/µg IgG [4] | EC50 [5] | EC50 [6] |
| --- | --- | --- | --- | --- | --- | --- |
| B1 | 20100 | 131000 | 4.3 OD450/µg IgG | 29.4 OD450/µg IgG |  |  |
| B2 |  | 127000 |  | 9.52 OD450/µg IgG |  |  |
| B3 | 126000 | 70800 | 139 OD450/µg IgG | 88.2 OD450/µg IgG |  |  |
| B4 | 8970 | 60500 | 1.55 OD450/µg IgG | 11.4 OD450/µg IgG |  |  |
| B5 | 232000 | 138000 | 13.3 OD450/µg IgG | 6.49 OD450/µg IgG |  |  |
| B6 | 12900 | 136000 | 6.7 OD450/µg IgG | 30.8 OD450/µg IgG |  |  |
| B7 | 28300 | 121000 | 1.05 OD450/µg IgG | 14.2 OD450/µg IgG |  |  |
| B8 | 20400 | 136000 | 3.05 OD450/µg IgG | 102 OD450/µg IgG |  |  |
| B9 | 10600 | 64000 | 3.14 OD450/µg IgG | 34.4 OD450/µg IgG |  |  |
| B10 | 6310 | 58300 | 2.22 OD450/µg IgG | 16.8 OD450/µg IgG |  |  |
| B11 | 6930 | 61400 | 3.34 OD450/µg IgG | 48.6 OD450/µg IgG |  |  |
| B12 | 7740 | 70300 | 0.79 OD450/µg IgG | 19.2 OD450/µg IgG |  |  |
| B13 | 10200 | 61900 |  |  |  |  |
| B14 |  |  |  |  | 0.023 mg/L | 0.065 mg/L |
| B15 | 7460 | 72600 | 2.23 OD450/µg IgG | 20.4 OD450/µg IgG |  |  |
| B16 | 7950 | 59200 | 1.11 OD450/µg IgG | 21.1 OD450/µg IgG |  |  |
| B17 | 8130 | 94700 | 1.04 OD450/µg IgG | 12.2 OD450/µg IgG |  |  |
| B18 | 12100 | 80100 | 2.87 OD450/µg IgG | 18 OD450/µg IgG |  |  |
| B19 | 6450 | 47000 | 2.51 OD450/µg IgG | 18.4 OD450/µg IgG |  |  |
| B20 | 11200 | 105000 | 1.32 OD450/µg IgG | 13.2 OD450/µg IgG |  |  |
| B21 | 9700 | 52400 | 3.82 OD450/µg IgG | 28.3 OD450/µg IgG |  |  |
| B22 | 7910 | 48900 | 2.11 OD450/µg IgG | 12.9 OD450/µg IgG |  |  |
| B23 | 7630 | 54100 | 2.18 OD450/µg IgG | 25.9 OD450/µg IgG |  |  |
| B24 | 6390 | 46100 | 2.16 OD450/µg IgG | 15.4 OD450/µg IgG |  |  |
| B25 |  |  |  |  | 0.029 mg/L | 0.059 mg/L |
| B26 | 10900 | 58900 | 0.34 OD450/µg IgG | 4.71 OD450/µg IgG |  |  |
